Assay results taken from the supplement of paper PMC7877785.
± gives the uncertainty stated by the source.

Assay: self-splicing fitness, log relative to wild type (ln ratio); higher = more splicing; Tetrahymena group I intron in knt gene, E. coli kanamycin selection, DiMSum; sequences stand for … in CUCUCU…GGAGGGAAAAGUUAUCAGGCAUGCACCUGGUAGCUAGUCUUUAAACCAAUAGAUUGCAUCGGUUUAAAAGGCAAGACCGUCAAAUUGCGGGAAAGGGGUCAACAGCCGUUCAGUACCAAGUCUCAGGGGAAACUUUGAGAUGGCCUUGCAAAGGGUAUGGUAAUAAGCUGACGGACAUGGUCCUAACCACGCAGCCAAGUCCUAAGUCAACAGAUCUUCUGUUGAUAUGGAUGCAGUUCACAGACUAAAUGUCGGUCGGGGAAGAUGUAUUCUUCUCAUAAGAUAUAGUCGGACCUCUCCUUAAUGGGAGCUAGCGGAUGAAGUGAUGCAACACUGGAGCCGCUGGGAACUAAUUUGUAUGCGAAAGUAUAUUGAUUAGUUUUGGAGUACUCGUGGUCG
Outline: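 A randomised library covering all eight P1ex-region intron nucleotides was built with the intron in the knt kanamycin-resistance gene on pET-22b(+) and held in E. coli BL21(DE3). Cells were grown overnight at 37°C or 30°C on LB agar, with or without 25 μg/mL kanamycin, plus 100 μg/mL carbenicillin, 50 μM IPTG and 0.2% rhamnose, and pooled colonies were amplicon-sequenced on an Illumina HiSeq 2500. DiMSum fitness is the error-weighted combination of wild-type-normalised replicate fold changes, kanamycin versus none.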

Sequence	self-splicing fitness (ln) (30 °C)	self-splicing fitness (ln) (37 °C)
GUGGAGCAAUAUUACGAAAU	-4.22 ± 0.36	-2.05 ± 0.29
GUGGAGCAAUAUUACGAGUU	–	-1.7 ± 0.43
GUGGAGCAAUAUUACGAUUU	-1.07 ± 0.27	-1.29 ± 0.29
GUGGAGCAAUAUUACGCACU	0.427 ± 0.33	–
GUGGAGCAAUAUUACGCAGU	-2.88 ± 0.18	-2.58 ± 0.31
GUGGAGCAAUAUUACGCGUA	-2.14 ± 0.36	-0.34 ± 0.25
GUGGAGCAAUAUUACGGCAA	–	-1.55 ± 0.35
GUGGAGCAAUAUUACGGCGG	-3.32 ± 0.29	-1.54 ± 0.27
GUGGAGCAAUAUUACGUAUU	-3.11 ± 0.17	-1.68 ± 0.21
GUGGAGCAAUAUUACGUCUC	-3.56 ± 0.15	-2.77 ± 0.16
GUGUAGCAAUAUUACGAACG	-1.76 ± 0.16	-0.988 ± 0.23
GUGUAGCAAUAUUACGAAUA	-1.91 ± 0.39	-1.39 ± 0.43
GUGUAGCAAUAUUACGACAA	-0.665 ± 0.14	-0.365 ± 0.21
GUGUAGCAAUAUUACGACAU	-2.608 ± 0.022	-1.52 ± 0.037
GUGUAGCAAUAUUACGAGCC	-2.65 ± 0.38	-2.28 ± 0.31
GUGUAGCAAUAUUACGAGCU	-2.36 ± 0.17	-0.678 ± 0.21
GUGUAGCAAUAUUACGAUGU	-1.36 ± 0.12	-0.234 ± 0.14
GUGUAGCAAUAUUACGCACU	-2.59 ± 0.41	-2.13 ± 0.33
GUGUAGCAAUAUUACGCAUA	-2.5 ± 0.21	-1.31 ± 0.19
GUGUAGCAAUAUUACGCAUG	-2.88 ± 0.27	-2.67 ± 0.41
GUGUAGCAAUAUUACGCCCA	–	-0.199 ± 0.35
GUGUAGCAAUAUUACGCCGC	-3 ± 0.46	-2.79 ± 0.44
GUGUAGCAAUAUUACGGCAA	-0.687 ± 0.17	-0.481 ± 0.23
GUGUAGCAAUAUUACGGGAA	-2.77 ± 0.19	-1.74 ± 0.2
GUGUAGCAAUAUUACGGGGU	-3.62 ± 0.26	-2.63 ± 0.34

Sequence	self-splicing fitness (ln) (30 °C)	self-splicing fitness (ln) (37 °C)
GUGUAGCAAUAUUACGGUAU	-2.35 ± 0.12	-0.18 ± 0.12
GUGUAGCAAUAUUACGUACA	-1.49 ± 0.2	-1.87 ± 0.28
GUGUAGCAAUAUUACGUAGU	-2.99 ± 0.18	-1.37 ± 0.17
GUGUAGCAAUAUUACGUCAA	-1.16 ± 0.15	-1.14 ± 0.15
GUGUAGCAAUAUUACGUGCA	-2.55 ± 0.21	-1.11 ± 0.26
GUGUAGCAAUAUUACGUUCA	-0.405 ± 0.14	-0.597 ± 0.13
GUUAAGCAAUAUUACGAAAU	-1.41 ± 0.16	-2.16 ± 0.24
GUUAAGCAAUAUUACGAAUC	-1.8 ± 0.29	-0.464 ± 0.17
GUUAAGCAAUAUUACGACAC	-0.925 ± 0.13	0.479 ± 0.19
GUUAAGCAAUAUUACGACCU	-0.481 ± 0.14	-0.37 ± 0.2
GUUAAGCAAUAUUACGAUCG	-2.08 ± 0.25	-1.18 ± 0.22
GUUAAGCAAUAUUACGCACA	-0.425 ± 0.09	-0.0375 ± 0.11
GUUAAGCAAUAUUACGCGGA	-0.996 ± 0.27	-0.987 ± 0.2
GUUAAGCAAUAUUACGCUAG	-1.64 ± 0.11	0.113 ± 0.14
GUUAAGCAAUAUUACGCUGA	-2.98 ± 0.22	-1.4 ± 0.2
GUUAAGCAAUAUUACGCUUU	-4.08 ± 0.43	-0.79 ± 0.22
GUUAAGCAAUAUUACGGCAU	-0.746 ± 0.12	0.0583 ± 0.18
GUUAAGCAAUAUUACGGCCU	-0.808 ± 0.29	0.635 ± 0.44
GUUAAGCAAUAUUACGGGAC	-1.6 ± 0.17	-0.964 ± 0.23
GUUAAGCAAUAUUACGGGGC	-3.5 ± 0.24	-2.58 ± 0.25
GUUAAGCAAUAUUACGGGUU	-3.44 ± 0.3	-2.98 ± 0.23
GUUAAGCAAUAUUACGGUAU	-1.36 ± 0.11	-0.895 ± 0.12
GUUAAGCAAUAUUACGUACU	-0.559 ± 0.15	-0.935 ± 0.14
GUUAAGCAAUAUUACGUAGG	-1.73 ± 0.1	-1.16 ± 0.17
GUUAAGCAAUAUUACGUAUG	-2.44 ± 0.12	-1.36 ± 0.13

Sequence	self-splicing fitness (ln) (30 °C)	self-splicing fitness (ln) (37 °C)
GUUAAGCAAUAUUACGUCGC	-1.61 ± 0.21	-1.83 ± 0.28
GUUAAGCAAUAUUACGUCUU	-0.682 ± 0.09	-0.56 ± 0.11
GUUAAGCAAUAUUACGUUGU	-3.68 ± 0.16	-2.28 ± 0.2
GUUCAGCAAUAUUACGAACG	-2.55 ± 0.35	-0.953 ± 0.23
GUUCAGCAAUAUUACGAAGU	-0.606 ± 0.098	-0.391 ± 0.12
GUUCAGCAAUAUUACGAGAU	-2.51 ± 0.16	-0.359 ± 0.12
GUUCAGCAAUAUUACGAGCC	-3.38 ± 0.18	-2.48 ± 0.24
GUUCAGCAAUAUUACGAGUA	-1.66 ± 0.19	-0.65 ± 0.16
GUUCAGCAAUAUUACGAGUC	-1.32 ± 0.15	-0.628 ± 0.17
GUUCAGCAAUAUUACGAUUA	-0.665 ± 0.12	-0.545 ± 0.097
GUUCAGCAAUAUUACGCACG	-0.107 ± 0.22	-0.682 ± 0.31
GUUCAGCAAUAUUACGCCUA	-0.396 ± 0.15	0.127 ± 0.14
GUUCAGCAAUAUUACGCGGU	-1.52 ± 0.11	-1.69 ± 0.14
GUUCAGCAAUAUUACGGACG	-2.15 ± 0.11	-0.428 ± 0.11
GUUCAGCAAUAUUACGGAGC	-2.39 ± 0.32	-1.53 ± 0.42
GUUCAGCAAUAUUACGGCAA	-0.436 ± 0.078	-0.458 ± 0.1
GUUCAGCAAUAUUACGGCCU	-1.02 ± 0.2	-0.57 ± 0.24
GUUCAGCAAUAUUACGGGAU	-2.24 ± 0.18	-1.58 ± 0.35
GUUCAGCAAUAUUACGGGCA	–	-1.11 ± 0.34
GUUCAGCAAUAUUACGGGCG	-1.57 ± 0.15	-0.592 ± 0.15
GUUCAGCAAUAUUACGGGGA	-4.6 ± 0.46	-2.56 ± 0.22
GUUCAGCAAUAUUACGGUCC	-0.652 ± 0.19	0.182 ± 0.23
GUUCAGCAAUAUUACGGUGA	-2.66 ± 0.17	-1.08 ± 0.13
GUUCAGCAAUAUUACGGUGU	-0.503 ± 0.05	0.262 ± 0.075
GUUCAGCAAUAUUACGUUAC	-1.98 ± 0.13	-1 ± 0.094

Sequence	self-splicing fitness (ln) (30 °C)	self-splicing fitness (ln) (37 °C)
GUUCAGCAAUAUUACGUUGG	-2.92 ± 0.17	-1.62 ± 0.15
GUUGAGCAAUAUUACGAAAG	-2.93 ± 0.38	0.317 ± 0.17
GUUGAGCAAUAUUACGAACG	–	-1.12 ± 0.35
GUUGAGCAAUAUUACGACAA	-2.38 ± 0.33	-2.54 ± 0.44
GUUGAGCAAUAUUACGACAU	-0.358 ± 0.014	-0.067 ± 0.034
GUUGAGCAAUAUUACGACUA	-2.4 ± 0.18	-2.85 ± 0.22
GUUGAGCAAUAUUACGAGAA	–	-0.619 ± 0.5
GUUGAGCAAUAUUACGCAAA	-2.73 ± 0.35	-0.984 ± 0.14
GUUGAGCAAUAUUACGCACU	-1.26 ± 0.15	-0.723 ± 0.2
GUUGAGCAAUAUUACGCAUA	-2.36 ± 0.24	-1.1 ± 0.17
GUUGAGCAAUAUUACGCAUG	-2.87 ± 0.16	-1.18 ± 0.16
GUUGAGCAAUAUUACGCCAU	–	-1.09 ± 0.35
GUUGAGCAAUAUUACGCCGG	–	0.442 ± 0.29
GUUGAGCAAUAUUACGCGAG	-1.35 ± 0.18	-0.457 ± 0.17
GUUGAGCAAUAUUACGCUGA	-3.9 ± 0.35	-2.61 ± 0.24
GUUGAGCAAUAUUACGGCGC	-0.744 ± 0.18	-0.21 ± 0.22
GUUGAGCAAUAUUACGGCGU	-1.02 ± 0.13	-0.302 ± 0.2
GUUGAGCAAUAUUACGGGUA	-2.46 ± 0.26	–
GUUGAGCAAUAUUACGGUGA	–	-2.78 ± 0.44
GUUGAGCAAUAUUACGUAGC	-0.983 ± 0.2	-2.07 ± 0.35
GUUGAGCAAUAUUACGUAGU	-2.05 ± 0.15	-1.31 ± 0.18
GUUGAGCAAUAUUACGUCUU	-1.53 ± 0.17	-1.72 ± 0.2
GUUGAGCAAUAUUACGUGCU	-1.95 ± 0.35	–
GUUGAGCAAUAUUACGUUAU	-3.37 ± 0.18	-0.445 ± 0.17
